Results: patent US6384189

Target: recombinant small latent TGF-β
Assay: cell-based or functional assay

Q: Which Fold Activation of Latent TGF-β over Baseline (soft agar NRK colony formation) (fold over baseline) does the source give for RFK (SEQ ID NO:18) (peptide) here?
A: The Fold Activation of Latent TGF-β over Baseline (soft agar NRK colony formation) (fold over baseline) was 2.5.

Q: “TSP stripped of TGF-β activity (sTSP) (from UniProt P07996 19-1170)” was tested. Which Fold Activation of Latent TGF-β over Baseline (soft agar NRK colony formation) (fold over baseline) did it give?
A: The Fold Activation of Latent TGF-β over Baseline (soft agar NRK colony formation) (fold over baseline) was 2.
